# Tested on: Asp97
# Assay: UV-vis
# Details: 150 mM NaCl; 50 mM Tris-HCl; Dark/ground state, retinal-bound, detergent-solubilised purified protein
substance,measurement,value
"HSG119 rhodopsin (blue-light absorbing proteorhodopsin homologue) (uncultured marine bacterium (metagenome sample HSG070119-03, seawater near King Sejong Station, King George Island, Antarctica))",pKa,around 5.8 and 8.0

# From article PMC6987182
